Assay results published in patent publication US7387779B2, “Anti-angiogenic proteins and fragments and methods of use thereof” (Beth Israel Deaconess Medical Center, priority 1998, dated 2008).

B1: endostatin: tumor associated angiogenesis inhibitor used as comparator (protein, UniProt P39060 1572-1754, looked up)
Endostatin: HSHRDFQPVLHLVALNSPLSGGMRGIRGADFQCFQQARAVGLAGTFRAFLSSRLQDLYSIVRRADRAAVPIVNLKDELLFPSWEALFSGSEGPLKPGARIFSFDGKDVLRHPTWPQKSVWHGSDPNGRRLTESYCETWRTEAPSATGQASSLLGGRLLGQSAASCHHAYIVLCIENSFMTASK
modifications: Endostatin
B2: Tumstatin: NC1 domain of the α3 chain of type IV collagen, residues 1-244 (SEQ ID NO:10) (protein, listed as Homo sapiens)
chain: GLKGKRGDSGSPATWTTRGFVFTRHSQTTAIPSCPEGTVPLYSGFSFLFVQGNQRAHGQDLGTLGSCLQRFTTMPFLFCNVNDVCNFASRNDYSYWLSTPALMPMNMAPITGRALEPYISRCTVCEGPAIAIAVHSQTTDIPPCPHGWISLWKGFSFIMFTSAGSEGTGQALASPGSCLEEFRASPFLECHGRGTCNYYSNSYSFWLASLNPERMFRKPIPSTVKAGELEKIISRCQVCMKKRH
B3: Tum-1: residues 54 to 244 of Tumstatin, lacking the N-terminal 53 amino acids (SEQ ID NO:22) (protein)
chain: QRAHGQDLGTLGSCLQRFTTMPFLFCNVNDVCNFASRNDYSYWLSTPALMPMNMAPITGRALEPYISRCTVCEGPAIAIAVHSQTTDIPPCPHGWISLWKGFSFIMFTSAGSEGTGQALASPGSCLEEFRASPFLECHGRGTCNYYSNSYSFWLASLNPERMFRKPIPSTVKAGELEKIISRCQVCMKKRH
modifications: Tum-1 (Tumstatin N-53) (amino acids 54-244 of SEQ ID NO10)
B4: Tumstatin-44-131: residues 44 to 131 of full-length Tumstatin (SEQ ID NO:33) (protein)
chain: FSFLFVQGNQRAHGQDLGTLGSCLQRFTTMPFLFCNVNDVCNFASRNDYSYWLSTPALMPMNMAPITGRALEPYISRCTVCEGPAIAI
modifications: Tumstatin-45-132 (amino acids 45-132 of SEQ ID NO10)
B5: Canstatin: NC1 domain of the α2 chain of Type IV collagen (SEQ ID NO:6) (protein, listed as Homo sapiens)
chain: VSIGYLLVKHSQTDQEPMCPVGMNKLWSGYSLLYFEGQEKAHNQDLGLAGSCLARFSTMPFLYCNPGDVCYYASRNDKSYWLSTTAPLPMMPVAEDEIKPYISRCSVCEAPAIAIAVHSQDVSIPHCPAGWRSLWIGYSFLMHTAAGDEGGGQSLVSPGSCLEDFRATPFIECNGGRGTCHYYANKYSFWLTTIPEQSFQGSPSADTLKAGLIRTHISRCQVCMKNL
B6: Tum-2: residues 1 to 132 of Tumstatin (SEQ ID NO:23) (protein)
chain: GLKGKRGDSGSPATWTTRGFVFTRHSQTTAIPSCPEGTVPLYSGFSFLFVQGNQRAHGQDLGTLGSCLQRFTTMPFLFCNVNDVCNFASRNDYSYWLSTPALMPMNMAPITGRALEPYISRCTVCEGPAIAI
modifications: Tum-2 (amino acids 1-132 of SEQ ID NO10)
B7: Tum-4: residues 181 to 244 of Tumstatin (SEQ ID NO:25) (protein)
chain: EFRASPFLECHGRGTCNYYSNSYSFWLASLNPERMFRKPIPSTVKAGELEKIISRCQVCMKKRH
modifications: Tum-4 (amino acids 181-244 of SEQ ID NO10)
B8: Can-1: N-terminal 114 amino acids of full-length Canstatin (protein, listed as Homo sapiens)
chain: VSIGYLLVKHSQTDQEPMCPVGMNKLWSGYSLLYFEGQEKAHNQDLGLAGSCLARFSTMPFLYCNPGDVCYYASRNDKSYWLSTTAPLPMMPVAEDEIKPYISRCSVCEAPAIA

Test system: C-PAE cells
Assay: Endothelial cell proliferation, methylene blue staining
Type: cell-based, bovine
Settings: for inhibition of endothelial cell proliferation by synthetic peptides: 10 μg/ml; for EC50: equimolar comparison, read-out: ED50, anti-proliferative effect; for inhibition of endothelial cell proliferation, comparison with anti-αvβ3 antibody: increasing equimolar amounts; for inhibition of proliferation of C-PAE cells: 15 μg/ml; for Relative Cell No. (%) C-PAE: 15 μg/ml recombinant protein; for reduction of the number of cells: 10% FBS, 5 ng/ml bFGF, 3 ng/ml VEGF, 48 hours, 5 μg/ml and higher
Method: A methylene blue staining test was also done. 3,100 cells were added to each well and treated as above, and cells were then counted using the method of Oliver et al. (Oliver, M. H. et al., 1989, J. Cell. Science 92:513-18). All wells were washed one time with […] of 1×PBS and the cells were fixed by adding […] of 10% formalin in neutral-buffered saline (Sigma Chemical Co., St. Louis, Mo., USA) for 30 minutes at room temperature. After formalin removal cells were stained with a solution of 1% methylene blue (Sigma Chemical Co.) in 0.01 M borate buffer (pH 8.5) for 30 minutes at room temperature. After removal of staining solution, the wells were washed 5 times with […] of 0.01 M borate buffer (pH 8.5). Methylene blue was extracted from the cells with […] of 0.1N HCi/ethanol (1:1 mixture) for 1 hour at room temperature. The amount of methylene blue staining was measured on a microplate reader (BioRad, Hercules, Calif., USA) using light absorbance at 655 nm wavelength.
In the methylene-blue staining method, 7000 cells were plated into each well of a 96-well plate, and treated as described above. Cells were then counted using the method of Oliver et al. (1989, J. Cell. Sci. 92:513-8). After 48 hours of treatment, all wells were washed with 100 μl of PBS, and the cells fixed with 10% formalin in neutral-buffered saline (Sigma Chemical Co., St. Louis, Mo., USA). The cells were then stained with 1% methylene blue (Sigma) in 0.01M borate buffer, pH 8.5. Wells were washed with 0.01M borate buffer, and the methylene blue extracted from the cells with 0.1N HCl/ethanol, and the absorbance measured in a microplate reader (Bio-Rad, Hercules, Calif., USA) at 655 nm. Polymyxin B (Sigma) at a final concentration of 5 μg/ml was used to inactivate endotoxin (Liu, S. et al., 1997, Clin. Biochem. 30:455-63).
Proliferation of endothelial cells (C-PAE cells) and WM-164 melanoma cells was assayed by methylene blue staining, as described above in Examples 25 and 34. The results are shown in FIGS. 33A and 33B, which are a pair of graphs showing the effect of increasing concentration (x-axis) of Tumstatin, Tum-1, Tum-2, Tum-3 and Tum-4 on the relative number (y-axis) of C-PAE cells (FIG. 33A) and WM-164 cells (FIG. 33B). […] Tum-4, however, did have anti-proliferative activity in this cell line. […] Only Tum-4 inhibited WM-164 melanoma cells.
For the proliferation assay, Canstatin, Can-1 and Can-2 soluble proteins (0.1-20.0 μg/ml) were added to the growth medium of proliferating C-PAE cells, which were stimulated with 10% FBS in DMEM, in addition to 5 ng/ml bFGF and 3 ng/ml VEGF. The results are shown in FIG. 40, which is a graph showing the effect of increasing concentrations of Canstatin (♦), Can-1 (▪) and Can-2 (▴) (x-axis) on the relative cell number (y-axis) of C-PAE cells. Each concentration of each protein was tested in quadruplicate. Bovine serum albumin (BSA) was used as a control treatment. Polymyxin B was used to control for endotoxin interference, and no differences were found between assays run with and without polymyxin B added to the medium. Cells were allowed to proliferate for 48 hours, and were then fixed, stained and the density read with a Bio-Rad plate reader (Bio-Rad, Hercules, Calif., USA). Canstatin and Can-1 both caused dose-dependent decreases in the percent cell number, and both reduced the number of cells by 80% at concentrations of 5 μg/ml and higher.
An endothelial cell proliferation assay was used to compare the activity of Tumstatin and some of the deletion mutants. Recombinant Tumstatin (28 kDa), Tumstatin-44-131 (12 kDa) and T3 peptide were used in a methylene blue proliferation assay in equimolar concentrations.

Molecule	EC50	inhibition of proliferation of C-PAE cells	Relative Cell No. (%) C-PAE (20% FCS)	also measured
GLKGKRGDSGSPATWTTRGF [T1]	–	–	–	inhibition of endothelial cell proliferation by synthetic peptides (20% FCS): did not inhibit endothelial cell proliferation
LQRFTTMPFLFCNVNDVCNF [T3]	2500 nM	–	–	inhibition of endothelial cell proliferation by synthetic peptides (20% FCS): significantly (p<0.05) inhibit; fold less active than Tumstatin and Tumstatin-44-131 (equimolar concentrations / molar basis): 2.5 fold
B1	–	–	–	inhibition of endothelial cell proliferation, comparison with anti-αvβ3 antibody: dose-dependent inhibition
B2	1000 nM	78.5%	100.0 ± 3.2%	inhibition of endothelial cell proliferation, comparison with anti-αvβ3 antibody: dose-dependent inhibition
B3	–	65.6%	20.5 ± 3.4 %	–
B4	1000 nM	–	–	ED50, inhibition of proliferation (Pichia-expressed, 20% FCS): 5 µg/mL
B5	–	–	–	reduction of the number of cells: 80%; treatment level at which dye uptake dropped off to the level seen in unstimulated cells (10% FCS): 0.625 to 1.25 µg/mL
B6	–	73.3%	34.3 ± 3.9 %	–
B7	–	did not inhibit	95.7 ± 3.6%	–
B8	–	–	–	reduction of the number of cells: 80%
